From patent US20190365916A1 (Bayer, published 2019)

molecular target: T1, surface receptor CD123 (IL3RA) (human, UniProt P26951 19-378); test: cell-based or functional assay
T1 sequence (P26951 19-378 limits assumed): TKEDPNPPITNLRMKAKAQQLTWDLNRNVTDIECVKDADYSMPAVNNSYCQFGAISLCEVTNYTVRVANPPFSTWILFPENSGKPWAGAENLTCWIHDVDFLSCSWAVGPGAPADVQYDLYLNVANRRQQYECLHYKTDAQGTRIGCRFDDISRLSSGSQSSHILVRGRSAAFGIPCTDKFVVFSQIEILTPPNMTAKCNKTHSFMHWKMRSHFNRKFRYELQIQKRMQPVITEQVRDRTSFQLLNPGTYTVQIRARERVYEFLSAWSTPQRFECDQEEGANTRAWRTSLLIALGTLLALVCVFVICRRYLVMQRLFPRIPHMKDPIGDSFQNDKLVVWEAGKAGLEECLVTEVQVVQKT

Row | Binder | IC50 [M] of growth inhibition, MTT assay, MOLM-13 cells (CD123-positive) [M] | IC50 [M] of growth inhibition, MTT assay, MV-4-11 cells (CD123-positive) [M]
1 | ADC Example 1c-8987 (anti-CD123 TPP-8987 coupled with Intermediate F325) (antibody, human IgG1, kappa, V domains shown, KSP inhibitor toxophore-linker of formula (I) (from Intermediate F325) on sulfur atoms of cysteine side chains of the partially reduced antibody; DAR 3.7; positions not given) VH: QVQLVQSGAEVKKPGSSVKVSCKASGGTFSDYYMKWVRQAPGQGLEWMGDIIPSNGATFYNQKFKGQVTITADESTSTAYMELSSLRSEDTAVYYCARSHLLRASWFAYWGQGTLVTVSS VL: DIVMTQSPDSLAVSLGERATINCESSQSVLNSGNQKNYLTWYQQKPGQPPKLLIYWASTRESGVPDRFSGSGSGTDFTLTISSLQAEDVAVYYCQNDYSYPYTFGQGTKLEIKR | 2.1e-10 | 1.26e-09
2 | ADC Example 1c-9476 (anti-CD123 TPP-9476 coupled with Intermediate F325) (antibody, human IgG1, kappa, V domains shown, KSP inhibitor toxophore-linker of formula (I) (from Intermediate F325) on sulfur atoms of cysteine side chains of the partially reduced antibody; DAR 3.1; positions not given) VH: QVQLVQSGAEVKKPGSSVKVSCKASGGTFSDYYMKWVRQAPGQGLEWMGDIIPSNGATFYNQKFKGRVTITADESTSTAYMELSSLRSEDTAVYYCARSHLLRASWFAYWGQGTLVTVSS VL: DIVMTQSPDSLAVSLGERATINCESSQSVLNSGNQKNYLTWYQQKPGQPPKLLIYWASTRESGVPDRFSGSGSGTDFTLTISSLQAEDVAVYYCQNDYSYPYTFGQGTKLEIKR | 2.85e-10 | 2.78e-09
3 | ADC Example 1c-8988 (anti-CD123 TPP-8988 coupled with Intermediate F325) (antibody, human IgG1, kappa, V domains shown, KSP inhibitor toxophore-linker of formula (I) (from Intermediate F325) on sulfur atoms of cysteine side chains of the partially reduced antibody; DAR 3.5; positions not given) VH: EVQLLESGGGLVQPGGSLRLSCAVSDYSITSGYYWNWIRQAPGKKLEWMGYISYDGSNNYNPSLKNGRITISRDTSKNTFYLQMNSLRAEDTAVYYCARGEGFYFDSWGQGTLVTVSS VL: EIVLTQSPGTLSLSPGERATLSCKSSQSLFFGSTQKNYLAWYQQKPGQAPRLLIYWASTRESGIPDRFSGSGSGTDFTLTISRLEPEDFAVYYCQQYYNYPWTFGQGTKLEIKR | 3.02e-11 | 2.94e-08

molecular target: T2, receptor protein CXCR5 (CD185) (human, UniProt P32302 1-372); test: cell-based or functional assay
T2 sequence: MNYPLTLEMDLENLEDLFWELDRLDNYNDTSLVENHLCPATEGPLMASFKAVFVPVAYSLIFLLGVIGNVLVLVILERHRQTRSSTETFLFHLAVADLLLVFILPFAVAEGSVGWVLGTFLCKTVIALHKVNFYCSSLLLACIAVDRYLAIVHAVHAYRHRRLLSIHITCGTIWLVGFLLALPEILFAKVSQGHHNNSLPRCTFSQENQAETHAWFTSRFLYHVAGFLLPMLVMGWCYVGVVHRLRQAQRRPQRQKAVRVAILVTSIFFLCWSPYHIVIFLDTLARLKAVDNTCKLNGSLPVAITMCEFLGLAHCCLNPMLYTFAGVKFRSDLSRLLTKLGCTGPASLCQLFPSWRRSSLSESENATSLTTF

Row | Binder | IC50 [M] of growth inhibition, MTT assay, Rec-1 cells (CXCR5-positive) [M]
4 | ADC Example 1x-9024 (anti-CXCR5 TPP-9024 coupled with Intermediate F325) (antibody, human IgG1, kappa, V domains shown, KSP inhibitor toxophore-linker of formula (I) (from Intermediate F325) on sulfur atoms of cysteine side chains of the partially reduced antibody; DAR 3.8; positions not given) VH: EVQLVESGGGLVQPGKSLKLSCSASGFTFSTSGMHWFRQAPGKGLDWVAYISSSSGFVYADAVKGRFTISRDNAQNTLYLQLNSLKSEDTAIYYCARSEAAFWGQGTLVTVSS VL: DIVLTQAPRSVSVTPGESASISCRSNKSRLSRMGITPLNWYLQKPGKSPQLLIYRMSNLASGVPDRFSGSGSETDFTLKISKVETEDVGVYYCAQFLEYPPTFGSGTKLEIKR | 1.34e-10
5 | ADC Example 1x-9574 (anti-CXCR5 TPP-9574 coupled with Intermediate F325) (antibody, human IgG1, kappa, V domains shown, KSP inhibitor toxophore-linker of formula (I) (from Intermediate F325) on sulfur atoms of cysteine side chains of the partially reduced antibody; DAR 4.1; positions not given) VH: not shown VL: DIVMTQSPLSLPVTPGEPASISCRSQKSRLSRMGITPLNWYLQKPGQSPQLLIYRMSNLASGVPDRFSGSGSGTDFTLKISRVEAEDVGVYYCAQFLEYPPTFGQGTKLEIKR | 2.94e-11
6 | ADC Example 1x-9580 (anti-CXCR5 TPP-9580 coupled with Intermediate F325) (antibody, human IgG1, kappa, V domains shown, KSP inhibitor toxophore-linker of formula (I) (from Intermediate F325) on sulfur atoms of cysteine side chains of the partially reduced antibody; DAR 4.2; positions not given) VH: not shown VL: DIVMTQSPLSLPVTPGEPASISCRSQKSRLSRMGITPLNWYLQKPGQSPQLLIYRMSNLASGVPDRFSGSGSGTDFTLKISRVEAEDVGVYYCAQFLEYPPTFGQGTKLEIKR | 2.78e-09

molecular target: T1, surface receptor CD123 (IL3RA); test: cell-based or functional assay; remark: another data set of the same source

Row | Binder | IC50 [M] of growth inhibition, MTT assay, MOLM-13 cells (CD123-positive) [M] | IC50 [M] of growth inhibition, MTT assay, MV-4-11 cells (CD123-positive) [M]
7 | reference ADC R1c-9476 (anti-CD123 TPP-9476 coupled with Intermediate F104) (antibody, human IgG1, kappa, V domains shown, reference KSP inhibitor toxophore-linker (from Intermediate F104) on sulfur atoms of cysteine side chains of the partially reduced antibody; DAR 3.1; positions not given) VH: QVQLVQSGAEVKKPGSSVKVSCKASGGTFSDYYMKWVRQAPGQGLEWMGDIIPSNGATFYNQKFKGRVTITADESTSTAYMELSSLRSEDTAVYYCARSHLLRASWFAYWGQGTLVTVSS VL: DIVMTQSPDSLAVSLGERATINCESSQSVLNSGNQKNYLTWYQQKPGQPPKLLIYWASTRESGVPDRFSGSGSGTDFTLTISSLQAEDVAVYYCQNDYSYPYTFGQGTKLEIKR | 3.04e-10 | 5.3e-09
8 | reference ADC R1c-8987 (anti-CD123 TPP-8987 coupled with Intermediate F104) (antibody, human IgG1, kappa, V domains shown, reference KSP inhibitor toxophore-linker (from Intermediate F104) on sulfur atoms of cysteine side chains of the partially reduced antibody; DAR 1.5; positions not given) VH: QVQLVQSGAEVKKPGSSVKVSCKASGGTFSDYYMKWVRQAPGQGLEWMGDIIPSNGATFYNQKFKGQVTITADESTSTAYMELSSLRSEDTAVYYCARSHLLRASWFAYWGQGTLVTVSS VL: DIVMTQSPDSLAVSLGERATINCESSQSVLNSGNQKNYLTWYQQKPGQPPKLLIYWASTRESGVPDRFSGSGSGTDFTLTISSLQAEDVAVYYCQNDYSYPYTFGQGTKLEIKR | 7.57e-08 | 1.33e-07
9 | reference ADC R1c-8988 (anti-CD123 TPP-8988 coupled with Intermediate F104) (antibody, human IgG1, kappa, V domains shown, reference KSP inhibitor toxophore-linker (from Intermediate F104) on sulfur atoms of cysteine side chains of the partially reduced antibody; DAR 3.4; positions not given) VH: EVQLLESGGGLVQPGGSLRLSCAVSDYSITSGYYWNWIRQAPGKKLEWMGYISYDGSNNYNPSLKNGRITISRDTSKNTFYLQMNSLRAEDTAVYYCARGEGFYFDSWGQGTLVTVSS VL: EIVLTQSPGTLSLSPGERATLSCKSSQSLFFGSTQKNYLAWYQQKPGQAPRLLIYWASTRESGIPDRFSGSGSGTDFTLTISRLEPEDFAVYYCQQYYNYPWTFGQGTKLEIKR | 4.26e-09 | 3.27e-08

molecular target: T2, receptor protein CXCR5 (CD185); test: cell-based or functional assay; remark: another data set of the same source

Row | Binder | IC50 [M] of growth inhibition, MTT assay, Rec-1 cells (CXCR5-positive) [M]
10 | reference ADC R1x-9024 (anti-CXCR5 TPP-9024 coupled with Intermediate F104) (antibody, human IgG1, kappa, V domains shown, reference KSP inhibitor toxophore-linker (from Intermediate F104) on sulfur atoms of cysteine side chains of the partially reduced antibody; DAR 3.7; positions not given) VH: EVQLVESGGGLVQPGKSLKLSCSASGFTFSTSGMHWFRQAPGKGLDWVAYISSSSGFVYADAVKGRFTISRDNAQNTLYLQLNSLKSEDTAIYYCARSEAAFWGQGTLVTVSS VL: DIVLTQAPRSVSVTPGESASISCRSNKSRLSRMGITPLNWYLQKPGKSPQLLIYRMSNLASGVPDRFSGSGSETDFTLKISKVETEDVGVYYCAQFLEYPPTFGSGTKLEIKR | 1.84e-10
11 | reference ADC R1x-9574 (anti-CXCR5 TPP-9574 coupled with Intermediate F104) (antibody, human IgG1, kappa, V domains shown, reference KSP inhibitor toxophore-linker (from Intermediate F104) on sulfur atoms of cysteine side chains of the partially reduced antibody; DAR 3.9; positions not given) VH: not shown VL: DIVMTQSPLSLPVTPGEPASISCRSQKSRLSRMGITPLNWYLQKPGQSPQLLIYRMSNLASGVPDRFSGSGSGTDFTLKISRVEAEDVGVYYCAQFLEYPPTFGQGTKLEIKR | 2.62e-10
12 | reference ADC R1x-9580 (anti-CXCR5 TPP-9580 coupled with Intermediate F104) (antibody, human IgG1, kappa, V domains shown, reference KSP inhibitor toxophore-linker (from Intermediate F104) on sulfur atoms of cysteine side chains of the partially reduced antibody; DAR 3.7; positions not given) VH: not shown VL: DIVMTQSPLSLPVTPGEPASISCRSQKSRLSRMGITPLNWYLQKPGQSPQLLIYRMSNLASGVPDRFSGSGSGTDFTLKISRVEAEDVGVYYCAQFLEYPPTFGQGTKLEIKR | 7.16e-11

molecular target: T1, surface receptor CD123 (IL3RA); test: cell binding assay, CypHer 5E-labelled against unlabelled antibody

Row | Binder | binding result
13 | anti-CD123 antibody TPP-8987 (antibody, human IgG1, kappa, V domains shown, Humanized anti-CD123 IgG; In the internalization assays it carried CypHer 5E dye on lysines) VH: QVQLVQSGAEVKKPGSSVKVSCKASGGTFSDYYMKWVRQAPGQGLEWMGDIIPSNGATFYNQKFKGQVTITADESTSTAYMELSSLRSEDTAVYYCARSHLLRASWFAYWGQGTLVTVSS VL: DIVMTQSPDSLAVSLGERATINCESSQSVLNSGNQKNYLTWYQQKPGQPPKLLIYWASTRESGVPDRFSGSGSGTDFTLTISSLQAEDVAVYYCQNDYSYPYTFGQGTKLEIKR | binds
14 | anti-CD123 antibody TPP-9476 (antibody, human IgG1, kappa, V domains shown, Humanized anti-CD123 IgG; In the internalization assays it carried CypHer 5E dye on lysines) VH: QVQLVQSGAEVKKPGSSVKVSCKASGGTFSDYYMKWVRQAPGQGLEWMGDIIPSNGATFYNQKFKGRVTITADESTSTAYMELSSLRSEDTAVYYCARSHLLRASWFAYWGQGTLVTVSS VL: DIVMTQSPDSLAVSLGERATINCESSQSVLNSGNQKNYLTWYQQKPGQPPKLLIYWASTRESGVPDRFSGSGSGTDFTLTISSLQAEDVAVYYCQNDYSYPYTFGQGTKLEIKR | binds
15 | anti-CD123 antibody TPP-8988 (antibody, human IgG1, kappa, V domains shown, Humanized anti-CD123 IgG; In the internalization assays it carried CypHer 5E dye on lysines) VH: EVQLLESGGGLVQPGGSLRLSCAVSDYSITSGYYWNWIRQAPGKKLEWMGYISYDGSNNYNPSLKNGRITISRDTSKNTFYLQMNSLRAEDTAVYYCARGEGFYFDSWGQGTLVTVSS VL: EIVLTQSPGTLSLSPGERATLSCKSSQSLFFGSTQKNYLAWYQQKPGQAPRLLIYWASTRESGIPDRFSGSGSGTDFTLTISRLEPEDFAVYYCQQYYNYPWTFGQGTKLEIKR | binds

molecular target: T2, receptor protein CXCR5 (CD185); test: as above

Row | Binder | binding result
16 | anti-CXCR5 antibody TPP-9024 (antibody, human IgG1, kappa, V domains shown, In the internalization assays it carried CypHer 5E dye on lysines) VH: EVQLVESGGGLVQPGKSLKLSCSASGFTFSTSGMHWFRQAPGKGLDWVAYISSSSGFVYADAVKGRFTISRDNAQNTLYLQLNSLKSEDTAIYYCARSEAAFWGQGTLVTVSS VL: DIVLTQAPRSVSVTPGESASISCRSNKSRLSRMGITPLNWYLQKPGKSPQLLIYRMSNLASGVPDRFSGSGSETDFTLKISKVETEDVGVYYCAQFLEYPPTFGSGTKLEIKR | binds
17 | anti-CXCR5 antibody TPP-9574 (antibody, human IgG1, kappa, V domains shown, Humanized anti-CXCR5 IgG; In the internalization assays it carried CypHer 5E dye on lysines) VH: not shown VL: DIVMTQSPLSLPVTPGEPASISCRSQKSRLSRMGITPLNWYLQKPGQSPQLLIYRMSNLASGVPDRFSGSGSGTDFTLKISRVEAEDVGVYYCAQFLEYPPTFGQGTKLEIKR | binds
18 | anti-CXCR5 antibody TPP-9580 (antibody, human IgG1, kappa, V domains shown, Humanized anti-CXCR5 IgG; In the internalization assays it carried CypHer 5E dye on lysines) VH: not shown VL: DIVMTQSPLSLPVTPGEPASISCRSQKSRLSRMGITPLNWYLQKPGQSPQLLIYRMSNLASGVPDRFSGSGSGTDFTLKISRVEAEDVGVYYCAQFLEYPPTFGQGTKLEIKR | binds
